Measurements reported in the supplement of paper PMC7125110.
± gives the standard error. Fewer inactive variants are shown than the library holds.

B1: glmS ribozyme (parent)
chain: AUAAAAGCGCCAGAACUACAGAAAUGUAGUUGACGAGGAGGAGGUUUAUCGAAUUUUCGGCGGAUGCCUCCAAA

Legend:
Settings in all cases: with glucosamine-6-phosphate
[1] = variants of: B1; assay: self-cleavage kobs at 40 uM GlcN6P; higher = faster cleavage; RNA array
Procedure, shortened: (§1)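 Barcoded ribozyme variants on sequenced MiSeq chips were transcribed in situ by E. coli RNA polymerase and followed at 37 °C through a hybridised Cy3 probe. Glucosamine-6-phosphate at 40 μM to 10 mM in HEPES/KCl/Mg(OAc)2 buffer was flowed in, and tiles were imaged over ~14 h. Signals were normalised to baseline and to non-cleaving reference variants, and per-tile medians were fit to one- or two-exponential decays to give kobs. Weighted Michaelis–Menten fits across concentrations gave kcat and KM.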

[2] = variants of: B1; assay: self-cleavage kobs at 640 uM GlcN6P; higher = faster cleavage; RNA array
Procedure, shortened: as §1

[3] = variants of: B1; assay: self-cleavage kobs at 10000 uM GlcN6P; higher = faster cleavage; RNA array
Procedure, shortened: as §1

[4] = variants of: B1; assay: self-cleavage kobs at 160 uM GlcN6P; higher = faster cleavage; RNA array
Procedure, shortened: as §1

[5] = variants of: B1; assay: self-cleavage kobs at 2500 uM GlcN6P; higher = faster cleavage; RNA array
Procedure, shortened: as §1

Variant	self-cleavage kobs at 40 uM GlcN6P [1]	self-cleavage kobs at 640 uM GlcN6P [2]	self-cleavage kobs at 10000 uM GlcN6P [3]	self-cleavage kobs at 160 uM GlcN6P [4]	self-cleavage kobs at 2500 uM GlcN6P [5]
C19A G43U	< 1e-05 s⁻¹	< 1e-05 s⁻¹			
G29U A48C G63U	< 1e-05 s⁻¹		< 1e-05 s⁻¹		
A15C G66A	8.43e-05 ± 1.9e-05 s⁻¹	0.000599 ± 0.00014 s⁻¹	0.00503 ± 0.0012 s⁻¹	0.000372 ± 0.00011 s⁻¹	0.00264 ± 0.00049 s⁻¹
A15U G38U U55C	< 1e-05 s⁻¹				
A12C A15C A42U U57G C61G C71U	< 1e-05 s⁻¹			< 1e-05 s⁻¹	< 1e-05 s⁻¹
G13U G32U A36G G38C U54G	< 1e-05 s⁻¹				
G13C C34A	< 1e-05 s⁻¹	< 1e-05 s⁻¹	< 1e-05 s⁻¹		
A14G A53U U55G	0.000607 ± 0.00013 s⁻¹		0.036 ± 0.013 s⁻¹		
A12U G35U U49C	< 1e-05 s⁻¹				< 1e-05 s⁻¹
A12G A33G G37U	< 1e-05 s⁻¹		< 1e-05 s⁻¹		
A15G G43C	< 1e-05 s⁻¹	< 1e-05 s⁻¹	< 1e-05 s⁻¹	< 1e-05 s⁻¹	< 1e-05 s⁻¹
A12C C34U G44C U56A U57A	< 1e-05 s⁻¹		< 1e-05 s⁻¹		
A14U G43A C61G U65A	< 1e-05 s⁻¹		< 1e-05 s⁻¹		
C16A G44C	< 1e-05 s⁻¹	< 1e-05 s⁻¹	< 1e-05 s⁻¹	< 1e-05 s⁻¹	
G13C G32C U57G C70G	7.16e-05 ± 2.4e-05 s⁻¹		9.13e-05 ± 1.7e-05 s⁻¹		
A15C G35A	< 1e-05 s⁻¹	< 1e-05 s⁻¹	< 1e-05 s⁻¹	< 1e-05 s⁻¹	< 1e-05 s⁻¹
C16G C34A	< 1e-05 s⁻¹	< 1e-05 s⁻¹	< 1e-05 s⁻¹		
A15C A36U	< 1e-05 s⁻¹		< 1e-05 s⁻¹		
C16A A42U G63U	< 1e-05 s⁻¹	< 1e-05 s⁻¹			< 1e-05 s⁻¹
A14C G29A A33U	< 1e-05 s⁻¹			< 1e-05 s⁻¹	< 1e-05 s⁻¹
C16A G37U G43U U57C	< 1e-05 s⁻¹	< 1e-05 s⁻¹	< 1e-05 s⁻¹		
A12U A36U C50A U69G	9.31e-05 ± 2.3e-05 s⁻¹		6.54e-05 ± 1.6e-05 s⁻¹		0.000241 ± 5.7e-05 s⁻¹
G29C A36U A39G G63U	< 1e-05 s⁻¹		< 1e-05 s⁻¹		
